The values below come from PMC2722910.

This data set concerns CC(C)C[C@H](NC(=O)[C@H](CO)NC(=O)[C@H](C)NC(=O)[C@H](CCCNC(=N)N)NC(=O)[C@H](CCCNC(=N)N)NC(=O)[C@@H](N)CC(C)C)C(=O)NCC(=O)O. The data set can be described thus: purified protein. The note with it: Mg2+, ATP.

For orientation: kcat means the number of substrate molecules converted per active site and unit of time at saturation. As to “cAMP-dependent kinase (PKA) catalytic subunit (Homo sapiens)”, the turnover number (kcat) was found to be 8.5 ± 0.5 s⁻¹.
